According to US20260103529A1, “Amino Acid Sequences Directed Against the Melanocortin 4 Receptor and Polypeptides Comprising the Same for the Treatment of MC4R-Related Diseases and Disorders” (Confo Therapeutics N.V., priority 2022, published 2026):
Like-named read-outs stand apart in the source and are kept apart here.

Experiments:
[1] = target: T1, human MC2R (Homo sapiens, UniProt Q01718); assay: Flow cytometry binding to Flag-tagged receptor in HEK293T cells, MC2R; conditions: 1 μM
T1 construct: Flag; expressed in transfected cells; host or cells: HEK293T
Experimental: (§1) To confirm MC4R activation, dose-dependent nanobody-induced cAMP signaling was assessed (Lance Ultra HTRF). […] Binding of pN162 to the human melanocortin receptor subtypes MC1R, MC2R, MC3R, MC4R or MC5R transiently expressed as Flag-tagged receptors in HEK293T cells was assessed by flow cytometry.

[2] = target: human wild type MC4R (Homo sapiens, UniProt P32245); assay: cAMP GloSensor assay, MC4R; type: cell-based; design: Flag; expressed in transfected cells; host or cells: HEK293T
Experimental: as §1
HEK 293T cells were routinely maintained at 37° C., 5% CO2, under humidified atmosphere in Dulbecco's modified Eagle's medium (DMEM, Gibco, cat. no. 41966-029) supplemented with 10% heat-inactivated fetal bovine serum. In preparation of the experiments, cells were plated on poly-L-lysine coated white 96-well plates (Costar: 3917) at the density of 3,00E+04 cells/well. At the moment of seeding, cells were transfected with 25 ng of human MC4R in pcDNA3.1 (+) and 50 ng of p22F GLoSensor plasmid (Promega Corporation), empty pcDNA3.1 (+) vector was added to obtain 100 ng of total DNA, using XtremeGene HP (Roche). To evaluate cross-reactivity of different VHHs for other melanocortin receptors, cells were additionally transfected with 50 ng of DNA encoding one of the three melanocortin receptors MC1R/MC3R/MC5R in pcDNA3.1 (+) and 50 ng of p22F GLoSensor plasmid (Promega Corporation), using XtremeGene HP (Roche). After 24 h post transfection, growing medium was gently removed from the cells and replaced with 90 μl/well of Assay medium (OptiMEM media containing 10% FBS HI with 2% GloSensor reagent (Promega)) in which cells were incubated for 2 h at room temperature in the dark. Next, background luminescence level was recorded using the En Vision 2104 Multilabel Plate Reader (Perkin Elmer). Samples (purified VHH produced in E. coli and/or mammalian cells with or without FC fusion) or benchmark compounds were prepared at 10× working concentration in OptiMEM containing 10% heat-inactivated Fetal Bovine Serum (FBS). After addition of 10 μl of samples luminescence was recorded in a kinetic mode using the En Vision 2104 Multilabel Plate Reader (Perkin Elmer). Data were analyzed using GraphPad Prism 8 by applying nonlinear regression (curve fit).

[3] = target: T2, WT human MC4R (Homo sapiens, UniProt P32245); assay: β-arrestin recruitment assay; type: cell-based; conditions: for EC50: WT human MC4R-expressing HEK293T cells
T2 construct: Flag (N); expressed in transfected cells; host or cells: HEK293T

[4] = tested on: MC4R; assay: Radioligand displacement, CHO stable cell line; type: binding; conditions: mean ± spread, n = 2
[5] = tested on: melanized reconstituted human epidermis (RHE/MEL/001); assay: In vitro pigmentation assay, 3D reconstituted human epidermis, dermoscopy; type: cell-based
Experimental: The study was carried out on melanized human epidermis (RHE/MEL/001; batch CB0521-3) in vitro reconstituted with NHEKs (Normal human epidermal keratinocytes, Lonza 00192906) isolated from foreskin of 3 neonatal Caucasian donors and NHEM-DP (Normal Human Epidermal Melanocytes-Darkly pigmented) isolated form one donor (phototype IV-V). The tissues were cultured at the air-liquid interface in Epilife medium (Fisher Scientific, MEP1500CA) containing specific supplements (with among others Human Keratinocytes Growth Factors, Fisher Scientific S0015 or SO01K) and antibiotics (Gentamycin, Fisher Scientific, 15710049). They were maintained in a humid atmosphere at 37° C. with 5% CO2.
RHE/MEL/001 were reconstituted and cultivated at the air-liquid interface during 14 days in Epilife medium supplemented with specific growth supplements (as described in paragraph 1) in a humid atmosphere at 37° C. with CO2 5%.
IBMX (Sigma; 15879) at 100 µM was used as tanning reference compound to validate the experiment. A DMSO control (corresponding to the solvent used to solubilize IBMX) at 0.02% (corresponding to the final concentration in DMSO found in the culture medium for the condition treated with IBMX) was planned as well. Four replicates were planned per condition (n=4).
At the end of the 10 days treatments (at day 14), macroscopic high-resolution pictures of tissues (n=4) were taken. This was performed using the C-Cube device (Dermoscope type tool; Pixience, France) coupled to C-Cube clinical 3 software, which uses a proprietary method of colour calibration, and provides razor-sharp images of high quality and precision. The following endpoints were calculated, each one taking into account 3 values from the mode “L* a* b*” with L* reflecting the luminance/brightness (value from 0 to 100 with high values for clear skins), a* to gives an idea about the redness of the skin (value from −60 to 60 on the red/green axis) and b* to gives an idea about the yellowness of the skin (value from −60 to 60 on the blue/yellow axis): • ITA (Individual Typology Angle) characterizing the phototype, compared to a standard scale, with ITA>55° for very clear skins and ITA<−30° for black skins. • PI (Pigmentation Index) whose value is directly proportional to the skin pigmentation, with PI from 140 for clear skins to 200 for dark skins. • Colorimetric difference (score or ΔE) allows to quantify colour variation between a test condition and a reference. […]
The two test items, hydro-soluble, were evaluated in parallel of one reference compound known to be a pigmentation inducer, namely IBMX. Their capacity to stimulate the production of melanin was evaluated by visual quantification of melanin on macroscopic high resolution pictures obtained by dermoscopy. […]

[6] = target: T3, human MC3R (Homo sapiens, UniProt P41968); assay: Flow cytometry binding to Flag-tagged receptor in HEK293T cells, MC3R; conditions: 1 μM
T3 construct: Flag; expressed in transfected cells; host or cells: HEK293T
Experimental: as §1

[7] = target: T4, human MC5R (Homo sapiens, UniProt P33032); assay: Flow cytometry binding to Flag-tagged receptor in HEK293T cells, MC5R; conditions: 1 μM
T4 construct: Flag; expressed in transfected cells; host or cells: HEK293T
Experimental: as §1

[8] = target: T5, human MC4R (Homo sapiens, UniProt P32245); assay: Flow cytometry binding to Flag-tagged receptor in HEK293T cells, MC4R; conditions: 1 μM
T5 construct: Flag; expressed in transfected cells; host or cells: HEK293T
Experimental: as §1

[9] = 10 μM in culture medium, 10 days, dermoscopy

T2 sequence (P32245 whole entry): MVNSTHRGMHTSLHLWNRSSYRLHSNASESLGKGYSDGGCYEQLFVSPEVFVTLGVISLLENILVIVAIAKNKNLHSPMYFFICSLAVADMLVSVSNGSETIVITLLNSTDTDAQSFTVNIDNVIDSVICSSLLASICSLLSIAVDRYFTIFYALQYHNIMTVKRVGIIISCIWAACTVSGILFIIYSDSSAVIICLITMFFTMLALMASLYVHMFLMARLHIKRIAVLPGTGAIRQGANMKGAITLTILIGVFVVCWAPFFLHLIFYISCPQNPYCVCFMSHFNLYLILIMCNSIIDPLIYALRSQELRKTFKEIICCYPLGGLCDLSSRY
human wild type MC4R, sequence (P32245 whole entry): as above
T5 sequence (P32245 whole entry): as above
T1 sequence (Q01718 whole entry): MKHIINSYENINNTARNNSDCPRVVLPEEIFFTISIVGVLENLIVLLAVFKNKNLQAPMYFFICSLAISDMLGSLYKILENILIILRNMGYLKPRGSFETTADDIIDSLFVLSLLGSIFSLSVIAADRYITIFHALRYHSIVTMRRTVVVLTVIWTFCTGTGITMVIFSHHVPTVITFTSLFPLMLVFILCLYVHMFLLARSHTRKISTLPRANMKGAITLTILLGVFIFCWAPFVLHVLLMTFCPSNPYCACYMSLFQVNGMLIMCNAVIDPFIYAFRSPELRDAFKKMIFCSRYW
T4 sequence (P33032 whole entry): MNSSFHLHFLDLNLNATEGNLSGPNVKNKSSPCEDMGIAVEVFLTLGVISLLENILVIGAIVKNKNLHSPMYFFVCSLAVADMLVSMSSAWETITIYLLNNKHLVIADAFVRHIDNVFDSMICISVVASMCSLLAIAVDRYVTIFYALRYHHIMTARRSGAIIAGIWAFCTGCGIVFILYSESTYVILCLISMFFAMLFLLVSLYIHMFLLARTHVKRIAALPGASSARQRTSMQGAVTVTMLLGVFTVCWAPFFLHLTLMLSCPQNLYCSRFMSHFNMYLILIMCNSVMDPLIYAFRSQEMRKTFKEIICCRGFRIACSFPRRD
T3 sequence (P41968 whole entry): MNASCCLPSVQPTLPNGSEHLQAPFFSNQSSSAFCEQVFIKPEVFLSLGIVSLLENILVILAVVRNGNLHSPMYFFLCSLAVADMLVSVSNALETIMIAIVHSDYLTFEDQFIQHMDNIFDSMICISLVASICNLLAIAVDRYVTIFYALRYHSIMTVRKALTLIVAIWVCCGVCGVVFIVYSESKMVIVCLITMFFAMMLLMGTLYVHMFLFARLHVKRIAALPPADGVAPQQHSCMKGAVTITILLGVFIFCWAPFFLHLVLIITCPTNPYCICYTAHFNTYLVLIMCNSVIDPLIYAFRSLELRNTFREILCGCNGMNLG

binding to MC2R by flow cytometry [1]: No binding could be detected
reduced potency in cAMP signaling via human MC4R compared to setmelanotide ([2]; GloSensor): 6.7 fold
potency ranking among agonistic nanobodies ([2]; GloSensor, Flag-tagged human wild type MC4R HEK293T cells): most potent full agonist nanobody
EC50 ([2]; Promega GloSensor, HEK293 transiently transfected, real-time, read-out: cAMP assay (GloSensor)): 8.4 ± 3.29 nM
EC50 ([2]; human wild type MC4R in HEK293T cells, read-out: average EC50, real-time cAMP monitoring (GloSensor), MC4R): 13.2 ± 5.6 nM
β-arrestin2 recruitment ([3]; Flag-tagged WT human MC4R HEK293T cells): dose-dependently recruits
EC50 ([3]; No Ca^2+, read-out: β-arrestin No Ca^2+ (EC50)): 16 ± 2.1 nM
dependence of β-arrestin recruitment on Ca2+ ions ([3]; absence vs presence of 1 mM Ca2+): independent of Ca^2+ ions
EC50 ([3]; read-out: β-arrestin 1 mM Ca^2+ (EC50), 1 mM Ca^2+): 23 ± 7.1 nM
binding to MC3R by flow cytometry [6]: No binding could be detected
binding to MC5R by flow cytometry [7]: No binding could be detected
binding to MC4R by flow cytometry [8]: only demonstrated for MC4R
B1: pN162: agonistic anti-MC4R VHH, SEQ ID NO: 184; parental clone for potency maturation (protein)
VHH: QVQLVESGGGLVQPGGSLRLSCAASGSAFSLNVMGWYRQTPGNQRALVAEITKDGSTNYADSAKGRFTISRDNAKNTVHLQMDSLKPEDTAVYYCKARTGRIVRPLDYWGQGTQVTVSS
modifications: pN0162
detectable cAMP signaling, MC4R ([2]; GloSensor head-to-head receptor subtype comparison): only induced detectable signaling on MC4R
Radioligand displacement [4]: 6.48 ± 1.96 nM
Individual typology angle (ITA) [5, 9]: No significant effects
pigmentation index (PI) [5, 9]: No significant effects
visual colorimetric difference (score, ΔE) [5, 9]: No significant effects
effect on epidermis pigmentation (conclusion of dermoscopy analysis) ([5]; 10 μM, human epidermis in culture): no effect on epidermis pigmentation
